Measured values as given in IntAct's records for PubMed 22863753.

B1: NLR family CARD domain-containing protein 3 (Homo sapiens), Q7RTR2 (parent)
chain: MRKQEVRTGREAGQGHGTGSPAEQVKALMDLLAGKGSQGSQAPQALDRTPDAPLGPCSNDSRIQRHRKALLSKVGGGPELGGPWHRLASLLLVEGLTDLQLREHDFTQVEATRGGGHPARTVALDRLFLPLSRVSVPPRVSITIGVAGMGKTTLVRHFVRLWAHGQVGKDFSLVLPLTFRDLNTHEKLCADRLICSVFPHVGEPSLAVAVPARALLILDGLDECRTPLDFSNTVACTDPKKEIPVDHLITNIIRGNLFPEVSIWITSRPSASGQIPGGLVDRMTEIRGFNEEEIKVCLEQMFPEDQALLGWMLSQVQADRALYLMCTVPAFCRLTGMALGHLWRSRTGPQDAELWPPRTLCELYSWYFRMALSGEGQEKGKASPRIEQVAHGGRKMVGTLGRLAFHGLLKKKYVFYEQDMKAFGVDLALLQGAPCSCFLQREETLASSVAYCFTHLSLQEFVAAAYYYGASRRAIFDLFTESGVSWPRLGFLTHFRSAAQRAMQAEDGRLDVFLRFLSGLLSPRVNALLAGSLLAQGEHQAYRTQVAELLQGCLRPDAAVCARAINVLHCLHELQHTELARSVEEAMESGALARLTGPAHRAALAYLLQVSDACAQEANLSLSLSQGVLQSLLPQLLYCRKLRLDTNQFQDPVMELLGSVLSGKDCRIQKISLAENQISNKGAKALARSLLVNRSLTSLDLRGNSIGPQGAKALADALKINRTLTSLSLQGNTVRDDGARSMAEALASNRTLSMLHLQKNSIGPMGAQRMADALKQNRSLKELMFSSNSIGDGGAKALAEALKVNQGLESLDLQSNSISDAGVAALMGALCTNQTLLSLSLRENSISPEGAQAIAHALCANSTLKNLDLTANLLHDQGARAIAVAVRENRTLTSLHLQWNFIQAGAAQALGQALQLNRSLTSLDLQENAIGDDGACAVARALKVNTALTALYLQVASIGASGAQVLGEALAVNRTLEILDLRGNAIGVAGAKALANALKVNSSLRRLNLQENSLGMDGAICIATALSGNHRLQHINLQGNHIGDSGARMISEAIKTNAPTCTVEM
partner: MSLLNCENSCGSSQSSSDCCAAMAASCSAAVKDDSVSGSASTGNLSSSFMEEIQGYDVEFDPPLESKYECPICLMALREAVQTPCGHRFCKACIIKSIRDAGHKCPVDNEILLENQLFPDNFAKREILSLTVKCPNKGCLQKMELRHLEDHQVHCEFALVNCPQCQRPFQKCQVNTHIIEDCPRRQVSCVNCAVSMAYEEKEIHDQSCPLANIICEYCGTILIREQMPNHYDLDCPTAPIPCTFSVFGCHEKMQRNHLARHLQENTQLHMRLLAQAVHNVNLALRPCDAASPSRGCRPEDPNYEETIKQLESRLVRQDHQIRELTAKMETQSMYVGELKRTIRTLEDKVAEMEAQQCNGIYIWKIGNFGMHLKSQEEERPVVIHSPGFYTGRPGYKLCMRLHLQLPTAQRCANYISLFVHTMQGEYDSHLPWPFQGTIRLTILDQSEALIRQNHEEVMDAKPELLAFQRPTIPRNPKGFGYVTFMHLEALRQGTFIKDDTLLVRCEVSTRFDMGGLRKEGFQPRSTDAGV

Variants of: B1
Settings: with traf6_mouse Traf6, P70196

Variant	effect of a mutation on the interaction
S457A;L458A;Q459A;E460A	decreasing interaction
